Among the data in patent US20250092426, “CAS ENDONUCLEASES AND RELATED METHODS” (Flagship Pioneering Innovations VII, LLC, published 2025) are activity values, retold here.

The target of this data set is T1, CasEnd-36 (synthetic construct).
T1 chain: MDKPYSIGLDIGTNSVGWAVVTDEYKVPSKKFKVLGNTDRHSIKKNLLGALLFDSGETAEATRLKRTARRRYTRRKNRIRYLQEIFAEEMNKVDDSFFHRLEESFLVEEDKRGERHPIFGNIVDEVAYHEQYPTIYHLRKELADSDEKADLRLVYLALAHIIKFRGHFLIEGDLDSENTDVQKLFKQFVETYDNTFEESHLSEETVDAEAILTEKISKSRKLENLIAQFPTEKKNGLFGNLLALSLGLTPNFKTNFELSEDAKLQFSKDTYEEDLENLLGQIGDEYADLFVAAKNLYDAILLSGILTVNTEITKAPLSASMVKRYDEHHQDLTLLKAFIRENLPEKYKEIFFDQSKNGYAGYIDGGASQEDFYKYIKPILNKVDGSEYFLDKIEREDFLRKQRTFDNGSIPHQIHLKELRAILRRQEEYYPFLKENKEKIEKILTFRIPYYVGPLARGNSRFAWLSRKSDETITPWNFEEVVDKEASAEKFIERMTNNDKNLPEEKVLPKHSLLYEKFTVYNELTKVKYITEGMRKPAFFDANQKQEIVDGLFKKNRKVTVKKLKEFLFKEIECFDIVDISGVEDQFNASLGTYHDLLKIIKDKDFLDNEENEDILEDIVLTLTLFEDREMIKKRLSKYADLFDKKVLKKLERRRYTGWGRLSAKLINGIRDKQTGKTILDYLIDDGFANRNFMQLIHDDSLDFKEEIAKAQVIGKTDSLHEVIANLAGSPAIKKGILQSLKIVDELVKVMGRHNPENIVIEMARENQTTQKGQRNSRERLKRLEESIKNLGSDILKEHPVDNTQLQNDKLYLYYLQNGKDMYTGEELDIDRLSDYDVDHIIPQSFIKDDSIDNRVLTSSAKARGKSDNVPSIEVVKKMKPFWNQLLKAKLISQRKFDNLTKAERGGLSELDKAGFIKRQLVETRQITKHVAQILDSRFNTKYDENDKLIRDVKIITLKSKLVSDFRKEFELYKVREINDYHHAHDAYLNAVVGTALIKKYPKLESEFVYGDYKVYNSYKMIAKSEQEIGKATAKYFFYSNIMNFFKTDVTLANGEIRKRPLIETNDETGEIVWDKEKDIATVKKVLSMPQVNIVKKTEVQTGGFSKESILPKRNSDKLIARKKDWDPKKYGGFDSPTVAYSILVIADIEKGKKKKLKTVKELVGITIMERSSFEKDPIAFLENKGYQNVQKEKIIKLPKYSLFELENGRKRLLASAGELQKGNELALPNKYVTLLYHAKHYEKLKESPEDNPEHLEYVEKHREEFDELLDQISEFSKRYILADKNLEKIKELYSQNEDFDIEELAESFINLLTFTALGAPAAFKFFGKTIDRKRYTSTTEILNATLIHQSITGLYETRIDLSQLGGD
The experiment in a line: cell_activity; +++; HEK293T; PAM not stated. The gist of the method: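 BFP-to-GFP conversion via reverse transcriptase fusion with each Cas endonuclease plus template RNA: 200 ng of each plasmid nucleofected into 250,000 BFP-expressing HEK293T cells (program DS-150). Percent GFP+ cells by flow cytometry at day 4 measured editing.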

B1: BFP-to-GFP template RNA ; BFP reporter protospacer (ssRNA ; dsDNA)
RNA: GCCGAAGCACUGCACGCCGUGUUUUAGAGCUAGAAAUAGCAAGUUAAAAUAAGGCUAGUCCGUUAUCAACUUGAAAAAGUGGCACCGAGUCGGUGCACCCUGACGUACGGCGUGCAGUGCUU
DNA 1: GCCGAAGCACTGCACGCCGT
DNA 2: ACGGCGTGCAGTGCTTCGGC
Turning to B1, the activity is ≥ 100 % of reference.
